Data: PMC6778029 (Molecular cell, 2019)
Numbering of substitutions follows the chain as printed.

Molecular target: the molecule itself
Test: dynamic light scattering

B1: recombinant hnRNPG RGG1mut (natural protein, human, UniProt P38159 1-391, looked up)
chain: MVEADRPGKLFIGGLNTETNEKALEAVFGKYGRIVEVLLMKDRETNKSRGFAFVTFESPADAKDAARDMNGKSLDGKAIKVEQATKPSFESGRRGPPPPPRSRGPPRGLAGGAGGSGGTAGPPSAGGHMDDGGYSMNFNMSSSRGPLPVKRGPPPRSGGPPPKRSAPSGPVRSSSGMGGRAPVSRGRDSYGGPPRREPLPSRRDVYLSPRDDGYSTKDSYSSRDYPSSRDTRDYAPPPRDYTYRDYGHSSSRDDYPSRGYSDRDGYGRDRDYSDHPSGGSYRDSYESYGNSRSAPPTRGPPPSYGGSSRYDDYSSSRDGYGGSRDSYSSSRSDLYSSGRDRVGRQERGLPPSMERGYPPPRDSYSSSSRGAPRGGGRGGSRSDRGGGRSRY
**Q.** Does B1 bind?
**A.** binds

B2: recombinant hnRNPG RGG2mut (natural protein, human, UniProt P38159 1-391, looked up)
chain: B1 chain with A110R, A113R, A120R, A125R, R369A, R373A, R377A
**Q.** Does B2 bind?
**A.** binds

B3: recombinant hnRNPG RRMmut (natural protein, human, UniProt P38159 1-391, looked up)
chain: B1 chain with K9A, F11A, R49A, F51A, F53A, A110R, A113R, A120R, A125R
**Q.** Does B3 bind?
**A.** binds
